Data reported in the RNAGym collection of RNA variant scans (doi:10.1073/pnas.2313332121).

B1: TPR t1 (parent)
chain: GACCAAUCUGCCCUCAGAGCUCGAGAACAUCUUCGGAUGCAGAGGAGGCAGGCUUCGGUGGCGCGAUAGCGCCAACGUCCUCAACCUCCAAUGCAUCCCACCACAUGAUGAUGCCUGAAGAGCCUUGGUUUUUUG

Variants of: B1
Assay: polymerase ribozyme fitness, log enrichment relative to wild type (log ratio); higher = more active; in vitro selection for triplet polymerase activity
In short: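 After PCR construction and transcription, each subunit's mutant library from a heterodimeric triplet polymerase ribozyme was annealed with a biotinylated primer, the partner subunit and triplets. Incubation was frozen, at −7 °C, and extended constructs were gel-excised, bound to streptavidin beads and amplified by RT-PCR, in one selection round done in triplicate. Fitness is the logarithm of a genotype's enrichment divided by that of the wild type, from inverse-variance-weighted replicate averages of Illumina-sequenced inputs and outputs. The base of the logarithm is 2, and genotypes needed ≥10 input reads and ≥1 read per output.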

Question: For A5C U9G, which “polymerase ribozyme fitness (log ratio)” value is on record?
Answer: 0.0336

Question: Which “polymerase ribozyme fitness (log ratio)” value does the source give for A6C A37C A111U here?
Answer: -3.49

Question: With A5U A6C G63U as the variant, how does the “polymerase ribozyme fitness (log ratio)” value read?
Answer: -1.11

Question: With A5U C70U as the variant, how does the “polymerase ribozyme fitness (log ratio)” value read?
Answer: -0.781

Question: With A5G U38G G48C G69U C79A as the variant, how does the “polymerase ribozyme fitness (log ratio)” value read?
Answer: -2.33

Question: Which “polymerase ribozyme fitness (log ratio)” value does the source give for A5U C115U here?
Answer: -1.6

Question: For A5G A26U U32C, which “polymerase ribozyme fitness (log ratio)” value is on record?
Answer: -2.95

Question: For A5U C15G G71C A84U, which “polymerase ribozyme fitness (log ratio)” value is on record?
Answer: -4.19

Question: For A5U U54C G69A U112C, which “polymerase ribozyme fitness (log ratio)” value is on record?
Answer: -0.469

Question: Which “polymerase ribozyme fitness (log ratio)” value does the source give for A5U U7A C15A G44A C56A G60A here?
Answer: -3.35

Question: For A5G C11A G58U, which “polymerase ribozyme fitness (log ratio)” value is on record?
Answer: -1.23

Question: With A5U C11A C115G as the variant, how does the “polymerase ribozyme fitness (log ratio)” value read?
Answer: -6.5

Question: Which “polymerase ribozyme fitness (log ratio)” value does the source give for A5U G19A A41U C94A C104U here?
Answer: -3.89

Question: Which “polymerase ribozyme fitness (log ratio)” value does the source give for A5U U130G here?
Answer: -0.49

Question: For A5G C12A U59C, which “polymerase ribozyme fitness (log ratio)” value is on record?
Answer: 0.0118

Question: For A5U C13U A37U G44C U78G C98U, which “polymerase ribozyme fitness (log ratio)” value is on record?
Answer: -4.45

Question: With A5G A103C C104A as the variant, how does the “polymerase ribozyme fitness (log ratio)” value read?
Answer: -3.08

Question: For A5U C11U G63C C80A A105C G113U, which “polymerase ribozyme fitness (log ratio)” value is on record?
Answer: -5.39

Question: With A5U A43G C102A U116C as the variant, how does the “polymerase ribozyme fitness (log ratio)” value read?
Answer: -5.9

Question: With A5C G71U C82A C101G as the variant, how does the “polymerase ribozyme fitness (log ratio)” value read?
Answer: -2.98

Question: Which “polymerase ribozyme fitness (log ratio)” value does the source give for A5U C104U U112A G120U here?
Answer: -0.575

Question: Which “polymerase ribozyme fitness (log ratio)” value does the source give for A5G U78A G120C here?
Answer: 0.799

Question: For A5U C102A, which “polymerase ribozyme fitness (log ratio)” value is on record?
Answer: -2.01

Question: With A5U C12A A90G as the variant, how does the “polymerase ribozyme fitness (log ratio)” value read?
Answer: -0.323

Question: With A5G C85U G113U G122U as the variant, how does the “polymerase ribozyme fitness (log ratio)” value read?
Answer: -3.92

Question: With A5U C13U U78G C82A C104U U109C as the variant, how does the “polymerase ribozyme fitness (log ratio)” value read?
Answer: -6.49

Question: For A5C U38G U96C C104U, which “polymerase ribozyme fitness (log ratio)” value is on record?
Answer: -2.11

Question: Which “polymerase ribozyme fitness (log ratio)” value does the source give for A6C here?
Answer: -0.236

Question: For A5U C13G A75C C76A, which “polymerase ribozyme fitness (log ratio)” value is on record?
Answer: -1.8

Question: Which “polymerase ribozyme fitness (log ratio)” value does the source give for A5U A41U G69U here?
Answer: 0.0184

Question: With A5G G45C G69A as the variant, how does the “polymerase ribozyme fitness (log ratio)” value read?
Answer: -2.95

Question: Which “polymerase ribozyme fitness (log ratio)” value does the source give for A5G C15A G61A here?
Answer: -0.776

Question: For A5G A6U A46G C123A, which “polymerase ribozyme fitness (log ratio)” value is on record?
Answer: 0.996

Question: For A5G U54G G69U, which “polymerase ribozyme fitness (log ratio)” value is on record?
Answer: -0.999

Question: With A5U G10A A41G G61A C101U U133G as the variant, how does the “polymerase ribozyme fitness (log ratio)” value read?
Answer: -0.742

Question: Which “polymerase ribozyme fitness (log ratio)” value does the source give for A5U C13G C72A C73U U106C here?
Answer: -3.49

Question: Which “polymerase ribozyme fitness (log ratio)” value does the source give for A5G G52C C70G C82U here?
Answer: -3.85

Question: For A5U G69C, which “polymerase ribozyme fitness (log ratio)” value is on record?
Answer: -2.22

Question: Which “polymerase ribozyme fitness (log ratio)” value does the source give for A5U G10A C15A C70U C79A C94U C99U C124U here?
Answer: -7.66

Question: With A5U A18U C88U as the variant, how does the “polymerase ribozyme fitness (log ratio)” value read?
Answer: -2.74

Question: With A5G G51A A84C C89U U106A U112C as the variant, how does the “polymerase ribozyme fitness (log ratio)” value read?
Answer: -2.68

Question: For A6C A18C G60U C82G G127U, which “polymerase ribozyme fitness (log ratio)” value is on record?
Answer: -5.44

Question: For A5U G45U A46C, which “polymerase ribozyme fitness (log ratio)” value is on record?
Answer: -1.71

Question: With A5G U54C G69U A118G U129A as the variant, how does the “polymerase ribozyme fitness (log ratio)” value read?
Answer: -1.19

Question: For A5G G61C C104A, which “polymerase ribozyme fitness (log ratio)” value is on record?
Answer: -2.73

Question: With A5U G57A G63U U78C A95C C115A as the variant, how does the “polymerase ribozyme fitness (log ratio)” value read?
Answer: -3.19

Question: Which “polymerase ribozyme fitness (log ratio)” value does the source give for A5G C70G G71U G120A U131A here?
Answer: -4.58

Question: With A6C C8G U92G A121C C123G as the variant, how does the “polymerase ribozyme fitness (log ratio)” value read?
Answer: 0.289

Question: With A5C G63C C114U as the variant, how does the “polymerase ribozyme fitness (log ratio)” value read?
Answer: -2.9

Question: For A5G G36A C53G C73U C80A C82G, which “polymerase ribozyme fitness (log ratio)” value is on record?
Answer: -1.5

Question: With A5G U133A as the variant, how does the “polymerase ribozyme fitness (log ratio)” value read?
Answer: -0.954

Question: With A5U U54G as the variant, how does the “polymerase ribozyme fitness (log ratio)” value read?
Answer: -0.237

Question: Which “polymerase ribozyme fitness (log ratio)” value does the source give for A5G G47U here?
Answer: -1.19

Question: Which “polymerase ribozyme fitness (log ratio)” value does the source give for A5U A6G C86A C102A here?
Answer: -3.72

Question: Which “polymerase ribozyme fitness (log ratio)” value does the source give for A5G C114G here?
Answer: -2.13

Question: For A5U C13U U21C C88U G120U, which “polymerase ribozyme fitness (log ratio)” value is on record?
Answer: -0.379

Question: For A5U G35C, which “polymerase ribozyme fitness (log ratio)” value is on record?
Answer: -4.38

Question: For A5U G35U, which “polymerase ribozyme fitness (log ratio)” value is on record?
Answer: -5.72

Question: With A5G C101A C115A as the variant, how does the “polymerase ribozyme fitness (log ratio)” value read?
Answer: -0.823

Question: With A5G C13U A103U as the variant, how does the “polymerase ribozyme fitness (log ratio)” value read?
Answer: -4.92

Question: For A5G A6C C11G C73A G93C, which “polymerase ribozyme fitness (log ratio)” value is on record?
Answer: -1.55

Question: For A5U U38G A74G, which “polymerase ribozyme fitness (log ratio)” value is on record?
Answer: -1.15

Question: For A5U A29G A46G C82G G120A, which “polymerase ribozyme fitness (log ratio)” value is on record?
Answer: -1.34

Question: With A5U G17C G23A C115G U131C as the variant, how does the “polymerase ribozyme fitness (log ratio)” value read?
Answer: -5.42

Question: With A5G U54C G69C A118G U129A as the variant, how does the “polymerase ribozyme fitness (log ratio)” value read?
Answer: -2.84

Question: Which “polymerase ribozyme fitness (log ratio)” value does the source give for A5U C64U C80A C88U A95U here?
Answer: -4.14

Question: Which “polymerase ribozyme fitness (log ratio)” value does the source give for A5U C49G G51A A74U C82A here?
Answer: -4.76

Question: For A6C C11A, which “polymerase ribozyme fitness (log ratio)” value is on record?
Answer: -2.65

Question: For A5U G47U, which “polymerase ribozyme fitness (log ratio)” value is on record?
Answer: -1.29

Question: For A5U G110A, which “polymerase ribozyme fitness (log ratio)” value is on record?
Answer: -1

Question: With A5U C102U G122A as the variant, how does the “polymerase ribozyme fitness (log ratio)” value read?
Answer: -3.47

Question: Which “polymerase ribozyme fitness (log ratio)” value does the source give for A5U C97G C115U G127A here?
Answer: -6.94

Question: Which “polymerase ribozyme fitness (log ratio)” value does the source give for A5U U131A here?
Answer: -2.48

Question: Which “polymerase ribozyme fitness (log ratio)” value does the source give for A5G C8G G47A G69U C80G here?
Answer: -3.96

Question: Which “polymerase ribozyme fitness (log ratio)” value does the source give for A5G U54G C88A here?
Answer: -0.448

Question: With A5C U81A as the variant, how does the “polymerase ribozyme fitness (log ratio)” value read?
Answer: -1.65

Question: For A5C G60A C101U, which “polymerase ribozyme fitness (log ratio)” value is on record?
Answer: -0.437

Question: Which “polymerase ribozyme fitness (log ratio)” value does the source give for A5G C12U G113U U125C here?
Answer: -2.74

Question: For A6C A16U C70U C104A, which “polymerase ribozyme fitness (log ratio)” value is on record?
Answer: -4.73

Question: Which “polymerase ribozyme fitness (log ratio)” value does the source give for A6C C12A U54G here?
Answer: -1.08

Question: Which “polymerase ribozyme fitness (log ratio)” value does the source give for A5U C56U A91C U112G here?
Answer: -1.59

Question: With A5U C40A as the variant, how does the “polymerase ribozyme fitness (log ratio)” value read?
Answer: -2.19

Question: Which “polymerase ribozyme fitness (log ratio)” value does the source give for A6C C12U A46G A118G here?
Answer: 0.142
